This data set deals with the molecule itself. Briefly: SEC.

The results in this text go back to paper PMC11555413 (Nature Communications, 2024).

B1: Myc-APRIL (ligand, UniProt O75888 116-250, looked up)
chain: SVLHLVPINATSKDDSDVTEVMWQPALRRGRGLQAQGYGVRIQDAGVYLLYSQVLFQDVTFTMGQVVSREGQGRQETLFRCIRSMPSHPDRAYNSCYSAGVFHLHQGDILSVIIPRARAKLNLSPHGTFLGFVKL
Regarding B1, the “stoichiometry N” value was determined as 3.

B2: APRIL-Myc (ligand, UniProt O75888 116-250, looked up)
chain: SVLHLVPINATSKDDSDVTEVMWQPALRRGRGLQAQGYGVRIQDAGVYLLYSQVLFQDVTFTMGQVVSREGQGRQETLFRCIRSMPSHPDRAYNSCYSAGVFHLHQGDILSVIIPRARAKLNLSPHGTFLGFVKL
Consider B2, for which the “stoichiometry N” value came to 3.
